Earlier results on three substances are cited in article PMC2786309 (Bioconjugate chemistry, 2009).

The subject of series [1] is MC1 receptor present on melanoma cells. Conditions: statement in method text, no reference given.
The test system of series [2] is B16/F1 melanoma-bearing C57 mice. As to conditions: mouse, in vivo.

Consider NDP-MSH, for which, in series [1], the “Affinity for the MC1 receptor” value is “picomolar affinity”.

Take “^111In-DOTA-[β-Ala^3, Nle^4, Asp^5, D-Phe^7, Lys^10]-α-MSH3-10 [^111In-DOTA-MSHoct]”: the Tumor uptake in series [2] (4 h) is 4.31 ± 0.30 % ID/g.

As to “^111In-DOTA-Gly-Glu-c[Lys-Nle-Glu-His-DPhe-Arg-Trp-Gly-Arg-Pro-Val-Asp] (FRWGRPVD; not fully specified; 111In-DOTA, Gly-Glu-Lys-Nle-Glu-His N-term, cyclic; printed: Phe-Arg-Trp-Gly-Arg-Pro-Val-Asp) [^111In-DOTA-GlyGlu-CycMSH]”, in series [2], the “Renal uptake reduction compared to 111In-DOTA-CycMSH” value is given as 44%. Further, the Melanoma uptake in series [2] (2 h) is listed as 10.40 ± 1.40 % ID/g.
